Data published in patent US20150203575A1.
One block for each substance: values may come before it.

Assays:
[1] = target: human CD99 expressed on 293T cells (human) (UniProt P14209); test: flow cytometry, transfected 293 cells, 2nd Ab anti-goat-IgG-PE; untransfected 293: 0.098
[2] = target: human NPDC1 expressed on cells (human) (UniProt Q9NQX5); test: as above
[3] = target: human COLEC12 expressed on cells (human) (UniProt Q5KU26); test: as above
[4] = target: FceRII expressed on cells (human) (UniProt P06734); test: flow cytometry, transfected 293T cells, 50 µg/ml
FceRII expressed on cells (human), sequence (P06734 whole entry N269T): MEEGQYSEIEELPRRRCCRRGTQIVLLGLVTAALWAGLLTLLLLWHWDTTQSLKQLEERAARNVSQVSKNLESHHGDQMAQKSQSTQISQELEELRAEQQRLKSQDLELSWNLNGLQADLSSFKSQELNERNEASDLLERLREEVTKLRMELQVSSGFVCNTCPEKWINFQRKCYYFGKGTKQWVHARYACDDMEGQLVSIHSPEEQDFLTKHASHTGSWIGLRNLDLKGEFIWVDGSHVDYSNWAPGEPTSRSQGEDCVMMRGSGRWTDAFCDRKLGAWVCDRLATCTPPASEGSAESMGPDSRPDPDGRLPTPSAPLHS

[5] = target: FceRII expressed on cells (human) (UniProt P06734); test: flow cytometry, transfected 293T cells, 2 µg/ml
[6] = target: human NPDC1 expressed on cells (human) (UniProt Q9NQX5); test: flow cytometry, transfected 293 cells, 2nd Ab anti-mouse IgG2a FITC; untransfected 293: 0
[7] = target: human CD99 expressed on 293T cells (human) (UniProt P14209); test: flow cytometry, transfected 293 cells, 2nd Ab anti-His-PE; untransfected 293: 0.13
[8] = target: human NPDC1 expressed on cells (human) (UniProt Q9NQX5); test: as above
[9] = target: human COLEC12 expressed on cells (human) (UniProt Q5KU26); test: as above
[10] = target: human CD99 expressed on 293T cells (human) (UniProt P14209); test: flow cytometry, transfected 293 cells, 2nd Ab anti-His-PE; untransfected 293: 0.059
[11] = target: human NPDC1 expressed on cells (human) (UniProt Q9NQX5); test: as above
[12] = target: human COLEC12 expressed on cells (human) (UniProt Q5KU26); test: as above

mPILRα-his (R&D) (receptor), sequence (Q2YFS3 32-198): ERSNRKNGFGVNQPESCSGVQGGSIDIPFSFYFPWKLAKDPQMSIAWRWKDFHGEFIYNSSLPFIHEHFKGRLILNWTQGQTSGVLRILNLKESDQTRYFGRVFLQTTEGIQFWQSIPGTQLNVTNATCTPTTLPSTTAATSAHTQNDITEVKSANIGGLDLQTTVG
mPILRβ-his (R&D) (receptor), sequence (Q2YFS2 29-195): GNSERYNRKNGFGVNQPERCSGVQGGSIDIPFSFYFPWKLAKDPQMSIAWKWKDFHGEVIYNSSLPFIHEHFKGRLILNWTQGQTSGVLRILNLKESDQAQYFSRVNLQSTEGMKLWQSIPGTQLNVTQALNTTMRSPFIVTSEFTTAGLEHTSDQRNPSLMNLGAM
human NPDC1 expressed on cells (human), sequence (Q9NQX5 35-325 H113Q limits assumed): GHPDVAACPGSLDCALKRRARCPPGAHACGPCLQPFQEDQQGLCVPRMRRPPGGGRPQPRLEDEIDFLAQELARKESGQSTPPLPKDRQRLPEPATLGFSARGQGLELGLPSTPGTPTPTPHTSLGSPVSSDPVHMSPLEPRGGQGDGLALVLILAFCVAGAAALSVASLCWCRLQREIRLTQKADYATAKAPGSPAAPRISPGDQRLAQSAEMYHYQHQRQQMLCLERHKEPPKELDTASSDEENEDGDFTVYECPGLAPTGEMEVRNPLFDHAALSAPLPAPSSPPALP
human CD99 expressed on 293T cells (human), sequence (P14209 23-185): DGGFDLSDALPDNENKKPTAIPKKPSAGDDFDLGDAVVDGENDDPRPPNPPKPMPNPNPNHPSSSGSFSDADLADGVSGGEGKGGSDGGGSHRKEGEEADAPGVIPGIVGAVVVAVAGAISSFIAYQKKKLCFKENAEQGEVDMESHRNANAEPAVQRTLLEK
human COLEC12 expressed on cells (human), sequence (Q5KU26 whole entry S522P/G606S): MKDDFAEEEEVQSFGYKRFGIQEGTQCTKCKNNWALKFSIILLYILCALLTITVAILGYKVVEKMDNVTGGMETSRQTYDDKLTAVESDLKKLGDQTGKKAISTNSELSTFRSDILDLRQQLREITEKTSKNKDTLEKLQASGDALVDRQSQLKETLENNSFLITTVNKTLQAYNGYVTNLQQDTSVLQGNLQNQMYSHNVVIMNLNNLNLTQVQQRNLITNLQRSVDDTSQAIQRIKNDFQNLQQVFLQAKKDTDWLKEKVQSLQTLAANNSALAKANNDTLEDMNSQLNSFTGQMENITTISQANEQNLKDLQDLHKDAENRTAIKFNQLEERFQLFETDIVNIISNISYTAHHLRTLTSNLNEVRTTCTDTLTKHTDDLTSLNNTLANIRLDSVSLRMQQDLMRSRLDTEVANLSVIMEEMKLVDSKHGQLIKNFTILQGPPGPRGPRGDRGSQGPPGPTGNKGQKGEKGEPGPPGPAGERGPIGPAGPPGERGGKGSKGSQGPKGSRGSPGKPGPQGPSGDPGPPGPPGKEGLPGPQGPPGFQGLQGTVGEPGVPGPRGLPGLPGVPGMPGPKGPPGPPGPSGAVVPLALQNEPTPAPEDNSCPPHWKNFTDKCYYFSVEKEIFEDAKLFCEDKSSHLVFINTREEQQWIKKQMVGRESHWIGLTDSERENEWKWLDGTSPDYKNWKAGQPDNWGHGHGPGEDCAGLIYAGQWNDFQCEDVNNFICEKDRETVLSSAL

% cells in lower right quadrant [1]: 0.19%
% cells in lower right quadrant [2]: 1.28%
% cells in lower right quadrant [3]: 2.19%
Substance: Goat IgG (Control) (antibody)

% cells in lower right quadrant [4]: 58.1%
% cells in lower right quadrant [5]: 15.5%
Substance: hPILRα-Fc (from UniProt Q9UKJ1 20-197) (Fc fusion)

% cells in lower right quadrant [5]: 0.028%
Substance: hPILRαR126A-Fc (from UniProt Q9UKJ1 20-197) (Fc fusion)

% cells in lower right quadrant [6]: 0.018%
Substance: mIgG2a (Control) (antibody)

% cells in lower right quadrant [4]: 47.8%
% cells in lower right quadrant [5]: 30.3%
Substance: mPILRα-Fc (from UniProt Q2YFS3 32-198) (Fc fusion)

% cells in lower right quadrant [7]: 0.24%
% cells in lower right quadrant [8]: 23.6%
% cells in lower right quadrant [9]: 12.3%
Substance: mPILRα-his (R&D) (receptor)

% cells in lower right quadrant [4]: 0.014%
Substance: mPILRαR133A-Fc (from UniProt Q2YFS3 32-198) (Fc fusion)

% cells in lower right quadrant [10]: 0.043%
% cells in lower right quadrant [11]: 0.22%
% cells in lower right quadrant [12]: 0.062%
Substance: mPILRβ-his (R&D) (receptor)
